Publication PMC7736784 (2020)

molecular target: Sso7d-NanoLuc large fragment fusion

Binder	Kd
GVTGWRLCERILA [NS6]	900 nM
NVTGYRLFKKISN [NS4]	8.5 nM
NVSGWRLFKKISN [NS5-Stoffel fusion (NanoLuc small fragment NS5)]	3.4 nM
